Reference: the nanobody polyreactivity screen of Harvey et al. (2022)

Assay: yeast display, Sf9 membrane polyspecificity reagent, FACS + sequencing; frameworks hold sequencing errors
How it was run: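 Using colony PCR, genes from sorted yeast display clones were amplified, then sequenced on MiSeq at 2 × 250 and filtered by CDR length. The clones had been stained with 10% biotinylated, detergent-solubilized Sf9 membrane reagent for 1 hour at 4 °C and sorted by FACS into low and high (top ~1%) gates on anti-HA and streptavidin fluorescence. Polyreactivity labels come from the gate of origin.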

Row | Sequence | polyreactivity (PSR sort gate)
1 | QVQLVESGGRLVQAGGSLRLTCAATGRTFVRNPMGSYRQAPGKERELVATIRSGGSTNYADSVKGRFTISRDNAKNTVYLQMNSLKPEDTAVYYCATQGSRARYDYYYWGQGTQVTVSS | high polyreactivity
2 | QVQLVESGGGLVQAGGSLRLSCAASGITFPANARGWYRQAPGKERELVADISESDGSTYYADSVKGRFTISRDNAKNTVFLQMNSLKPEDTAVYYCAADGTSGTRSDYWGQCTQVTVSS | low polyreactivity
3 | QVQLVESGGGLVEAGGSLRLSCAASGGTFKLYAMGWYRPAPGKERELVAAISRRGGSTYYADSVKGRFTISRDNAKNTVYLQMNSLKPDDTALSNCAAPGPTQSTQRGGYWGQGTQVTVSS | high polyreactivity
4 | QVQLVESVGGLVQAGGSLRISCAASGFIFEVYAMGWYRQAPGKERELIAAIRWSGTSTYYAYSVKGRFTISRDNAKNTFYLQMNSLKPEDTAVYYCAADSWDWHIGGEDYWGQGTQVTVSS | low polyreactivity
5 | QVQLVESWGGLVQAGGSLHLSCAASGSTFQEYAMGWYRQAPGKERELVASIRWSGGRTYYADSVKGRFTISRDNAKNTVYLQMNSLKPEDTAFYYCAAGQWWYQVRFDYWGQGTQVTVSS | low polyreactivity
6 | QVQLVESGGGLVQAGGSLRLSCAASGSIFDRNAMGWYRQAPGKERELVAAISRSSGNTYYADSVKGRFTISRDNAKNTVYLQMNSLNPEDTAVYYCNKAVSYGTYKYYYWGQGTQVTVSS | high polyreactivity
7 | QVHLVESGGGLVQAGGSLRLSCAAYGSIFHGNAMGWYRQAPGKERELVAAISWSGDSTYYADSVKGRFTISRDNAKNTVYLHMNSLKPEDTAVYSCNAEWTRDFYEYDYWGQGTQVTVSS | low polyreactivity
8 | QVQLVESGGGLVQAGGSLRLSCAASGITFSGNAMGWYRQAPGKERELVAAISGRGGSTYYADSVKGRFTISRDNAKNTVYLQMNSLKPVDTAVYYCAADSPENRYNYWGQGTQVTVSS | high polyreactivity
9 | QVQLVESGGGLVQAGGSLRLSCAASGFTFYVYAIGWYRKAPRKEREFVAAISKSGGRTYYADSVKGRFTISRDTAKNTVYLQMNSLKPEDTAVYYCGRYNRYQIIYPRFDYWGHGTQVTVSS | high polyreactivity
10 | QVQLVESGGGLVQAGGSRRLSCAASGRTFRNYAMGWYRQAPGKERELVAAINFSGDGTYYADSVKGRFTISRDNAKNTVYLQMNSLKPEDTAVYYCAADVEYYRDVPQQVYVSDDYWGQGTQVTVSS | low polyreactivity
11 | QVQLVESGGGLVQAGGSLRLSSAGSGSPFRSNAMGWYRQAPGKERELVAAISQRGGSTYYADSVKGRFTISRDNAKNPVYLQMNSLKAVDTAVYYCAKVSKRVGFPTAMNYWGQGTQVTVSS | high polyreactivity
12 | QVQLVESGGGLVQAGGSLRLSCAASGRTFGSNAMGWYRQAPGKERELVAAISSSDSTNYADSVKGRFTISRDNAKNTVYLQMNSLKPEDTAVYYCNAGHPVRSPGYDYWGQGTQVTVSS | low polyreactivity
13 | QVQLVESGGGLVQAGGSLLLSSAPTGITFEGYSMGWSRQAPGKERELVAAIRSSGTSTYYADSVKGRFTISRDNAKNTVYLQMNSLKPDDTAVYYCNRARSSSRYDYWGQGTQVTVSS | low polyreactivity
14 | QVQLVESGGGLVQAGGSLRLSCAASGFIFWYYAMGWYRQAPGKERELVATITSGGSTTYADSVKGRFTISRDNAKNTVYLQMNSLKPEDTAVYYCAAKGISRYDWGQGTQVTVSS | low polyreactivity
15 | QVQLVESGGGLVQAGGSLRLSCAASGRTFSYYTMGWYRQAPGKERDLVAGIRSAGSTYYADSVKGRFTISRDNAKNTVYLLMNSLKPEDTAVYYCAARPYGGGRRSIYYYWGQGTQVTVSS | high polyreactivity
16 | QVQLVESGGGLVQEGRSLRLSCAASGSIFTPYAMGWYRQAPGKERELVADINSGGSTDYADSVKGRFTISRDNAKNTVYLQMNSLKPEDTAVYYCASTWSFYFILYDYWGQGTQVTVSS | high polyreactivity
17 | QVQLVESGGGLVQAGGSLRLSCAASGCTSTSNAMGWYRQAPGKERELVALISSGGSTYYAVSVKGRFTISRDNAKNTVYLQMNSLKQEDTAVYYCAARRGTGSYSYRYPYGYDYWGQGTQVTVSS | low polyreactivity
18 | QVQLVESGGGLVQAGGSLRLSCAPSGRTYTVYTMGWYRQAPGKERELVAVISTGGRTYYADSVKGRFTISRDNAKNTVYLQMNSLKPEDTAVYYCAAKFTREYYWGQGTEVTVSS | high polyreactivity
19 | QVQLVESGGGLVQAGGSLRLSCAASGSIFQRYTMGWYRQAPGKERELVAAITSRSGRTYYADSVKGRFTISRDNAKNTVYLQMNSLKPEDTAVYYCATVPYDQTRGYKYDYWGQGTQVTVSS | high polyreactivity
20 | QDQLVESGGGLVQAGGSHRLSSAASGSILGAYAMGWYRQPPVKERELVAAISRNGGSTYYADSVKGRFTISRDNAKNTVYLQMNRLKPEDTAVYYCAAYYYDNEYDYWGQGTQVTVSS | high polyreactivity
21 | QVQLVESGGGLVQAGGSLRLSCAASGRTSYRYAMGWYRQAPGKERELVAAISWSGGSTYYADSVKGRFTISRDNAKNTVSLQMNSLKPDDTAVYYCNARQHQVRWWLREFDYWGQGTQVTVSS | low polyreactivity
22 | QVQLVESGGGLVQAGGSLRLSCAATGFTLTRNAMGWYRQAPGKERELVAAISWSGGTTYYADSVKGRFTISRDNAKNTFYLQMNSLKPEDTAVYYCAALRYKLPLGYWGQGTQVTVSS | high polyreactivity
23 | QVQLVESGGGLVQAGGSLRLSCAASGFIFHYYAMGWYRQAPGKERELVAAISKTGGSTYYADSVKGRFTISRDNAKNTVYLQMNSLKPEDTAVYYCAVARSAYYRGNHWGQGTQVTVSS | high polyreactivity
24 | QVQLVESGGGLVQAGGSLRLSCAASGSTFTVYAMGWYRQAPGKEREFVAAITPSGASTYYADSVKGRFTISRDNAKNTVYLQMNSLKPEDTAVYYCNARSRTGYTNRMYYWGQGTQVTVSS | high polyreactivity
25 | QVQLVESGGGLVQAGGSLRLICAASGFILRRYAMGWFRPAPGKEREFVAAIRYRGGNTYYADSVKGRFTLSRDTAKNTVYFQMNSLNPEDTAVYYCAADWSEKYEYWRQGTQVTVSS | high polyreactivity
26 | QVQLVESGGGLVQAGGILRLSCAASGSTTYYYAMGWYRQQPGKDRELVATISTTGAGTYYADSVKGRFTISRDNAKNTVYLQMNSLKPEDTAVYYCAKDGKASRDDAEYDYWGQGTQVTVSS | low polyreactivity
27 | QVQLVESGGGLVQAGGSLRLSCAASGRTFYSYAMGWSRQAPGKERELVAAISRAGGTYYADSVKGRFTLSRDNAKNTVYLQMNSLKPEDTAVYYCAARQAVYGLRSDFYYWGQGTQVTVSS | high polyreactivity
28 | QVQLVESGGGLVQAGGSLRLSCAASGRTFASYAMGWYRQAPGKERQLVAAITRGGNTNYADSVKGRFTISRDNAKNTVYLQMNSLNPEDTAVYYCATEGFVYSWLWEFEYWGQGTQVTVSS | low polyreactivity
29 | QVQLVESGGGLVQAGGSLRLSCAASGRIIPYYAMGWYRQAPGKERELVAAISSSGGRTYYADSVKGRFTISRDNAKNTVYLQMNSLKPEDTAVYYCAAGFPTFGWDKVRFIMYYWGQGTQVTVSS | high polyreactivity
30 | QVQLVESGGGSVQAGGSLRLSCAASGSTFQYYDMGWYRQAPGKERELVASITGSGDSTYYADSVKGRFTISRDNAKNTVYLQLNSLKPEDTAVYYCAAQNTWSGDYDYWGQGTQVTVSS | low polyreactivity
